Patent publication CN113912710A (SURE BIOTECH HANGZHOU LTD, dated 2022)

Legend:
[1] = target: T1, SARS-CoV Nucleocapsid Protein(His Tag), 货号40143-V08B (SARS-CoV, UniProt P59595 1-422); test: ELISA, cross-reaction test
T1 construct: also called SARS病毒的N蛋白; SARS-CoV-NP

[2] = target: T2, MERS-CoV Nucleocapsid Protein(His Tag), 货号40068-V08B (MERS-CoV, UniProt K9N4V7 1-411); test: ELISA, cross-reaction test
T2 construct: also called MERS病毒的N蛋白; MERS-CoV-NP

B1: 单克隆抗体Mouse anti-SARS-COV-2 Mab4(NP-Ab) (antibody, V domains shown)
VH: VKLQESGPELKKPGETVRISCKASGYTLTDYSIHWVKQAPGKGLKWMGWINTETVEPTYTDDFKGRFAFSLETSASTAYLQINNLKNEDTATYFCASTGTEFDYWGQGTTLTVSS
VL: DVVMTQTPLSLPVSLGDQASISCRSSQSLVHITGNTYLHWYLQKPGQSPKLLIYKVSNRFSGVPDRFSGSGSGTDFTLKISRVEAEDLGVYFCSQSTHVPLTFGAGTKLELK
notes: also called A1-1; A1-1号抗体
binding result [1]: no binding
binding result [2]: no binding
